{"source": "patent US20220387487A1", "about": "“COMPOSITIONS AND METHODS FOR TREATMENT OF CANCER” (Aleta Biotherapeutics Inc., priority 2019, published 2022)", "key": {"[1]": {"tested_on": "CLL-1 positive U937 cells", "assay": "Flow cytometry binding of fusion proteins to U937 cells (FMC63-PE detection)", "parameters": "species or system human", "details": "FIG. 20", "method": "The ability of an expressed biparatopic construct comprising the fusion protein containing a CD19 variant, an anti-CLL-1 scFv, and an anti-CLL-1 VHH (#357) to bind CLL-1 positive U937 cells was evaluated relative to the binding of an expressed construct containing a fusion protein comprised of a CD19 variant and an anti-CLL-1 VHH (#330) and an expressed construct containing a fusion protein comprised of a wild type CD19 and an anti-CLL-1 scFv (#186). […] Approximately 5×10^5 cells were aliquoted per sample. The cells were spun, washed with FB, and then suspended in 100 μl of the biparatopic or monospecific fusion protein dilution (supernatant or purified starting at 10 μg/ml) in FB. The cell/fusion protein mixture was incubated for 30 minutes at 4° C. and then washed 2× with FB. […] After washing 2× with FB, the cells were fixed with a final concentration of 1% PFA in PBS (Thermo Scientific) and then analyzed by flow cytometry (Accuri C6, Becton-Dickinson).\nTo further confirm the binding and cytotoxicity capabilities of an expressed biparatopic fusion protein comprising a CD19 variant, an anti-CLL-1 scFv, and an anti-CLL-1 VHH, a construct was generated with the same features as construct #357 but lacking the HIS tag. […] The cells were washed twice with FACS buffer, fixed with a final concentration of 1% PFA in PBS (Thermo Scientific) and then analyzed by flow cytometry. […]"}, "[2]": {"biological_target": "T1, CLEC12A Q form (Homo sapiens, UniProt Q5QGZ9, K244Q)", "T1 construct": "transfected with full-length CLEC12A (UniProt Q5QGZ9-1) cDNAs; expressed in transfected cells; host or cells: HEK-293T", "T1 sequence (Q5QGZ9 1-275 isoform Q5QGZ9-1 K254Q)": "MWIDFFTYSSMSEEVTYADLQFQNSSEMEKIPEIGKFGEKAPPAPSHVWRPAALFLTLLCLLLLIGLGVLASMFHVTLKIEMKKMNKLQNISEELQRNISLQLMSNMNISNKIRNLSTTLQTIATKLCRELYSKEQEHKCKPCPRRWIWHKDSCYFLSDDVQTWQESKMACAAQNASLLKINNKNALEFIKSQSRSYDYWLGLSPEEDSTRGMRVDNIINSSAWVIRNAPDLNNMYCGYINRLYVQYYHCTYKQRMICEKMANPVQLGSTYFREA", "assay": "Flow cytometry binding to HEK-293T cells transfected with CLEC12A amino acid 254 Q version", "details": "FIG. 19", "method": "(§1) Given the unique binding properties of VHH clone 2H3 relative to the anti-CLEC12A scFv we tested the binding properties of a biparatopic fusion protein containing both the VHH clone 2H3 and an anti-CLEC12A scFv. HEK-293T cells were transfected with full-length CLEC12A (UniProt Q5QGZ9-1) cDNAs expressing the amino acid 254 “K” version of CLEC12A (GenScript) or a version with “Q” at this position generated by mutagenesis. The cells were removed with Accutase and washed with PBS, suspended in 50 μL FACS buffer (FB, PBS+1% BSA and 0.1% sodium azide) and blocked with human Fc block (Becton Dickinson) at room temperature for 10 minutes. Then, 50 μl of the purified fusion proteins #186, #330 or #357 diluted in FACS buffer (starting at 3 μg/ml with 3 fold dilutions) were added. The cell/fusion protein mixture was incubated for 30 minutes at 4° C. and then washed twice with FACS buffer. The cells were suspended in 100 μl of FACS buffer, stained with HIB19-PE (BioLegend […]), and incubated for 30 minutes at 4° C. The cells were washed twice with FACS buffer, fixed with a final concentration of 1% PFA in PBS (Thermo Scientific) and then analyzed by flow cytometry."}, "[3]": {"biological_target": "T2, CLEC12A K form (Homo sapiens, UniProt Q5QGZ9)", "T2 construct": "transfected with full-length CLEC12A (UniProt Q5QGZ9-1) cDNAs; host or cells: HEK-293T", "T2 sequence (Q5QGZ9 1-275 isoform Q5QGZ9-1)": "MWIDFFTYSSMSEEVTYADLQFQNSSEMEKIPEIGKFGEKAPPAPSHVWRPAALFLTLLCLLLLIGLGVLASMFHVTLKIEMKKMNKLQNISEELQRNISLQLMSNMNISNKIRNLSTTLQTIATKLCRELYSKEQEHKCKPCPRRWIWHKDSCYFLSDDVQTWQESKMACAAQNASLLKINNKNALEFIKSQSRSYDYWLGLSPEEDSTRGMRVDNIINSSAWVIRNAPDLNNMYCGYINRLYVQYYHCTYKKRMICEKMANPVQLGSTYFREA", "assay": "Flow cytometry binding to HEK-293T cells transfected with CLEC12A amino acid 254 K version", "details": "FIG. 19", "method": "as §1"}, "[4]": {"biological_target": "T3, CLEC12A (Homo sapiens, UniProt Q5QGZ9, K244Q)", "T3 sequence (Q5QGZ9 65-265 K244Q)": "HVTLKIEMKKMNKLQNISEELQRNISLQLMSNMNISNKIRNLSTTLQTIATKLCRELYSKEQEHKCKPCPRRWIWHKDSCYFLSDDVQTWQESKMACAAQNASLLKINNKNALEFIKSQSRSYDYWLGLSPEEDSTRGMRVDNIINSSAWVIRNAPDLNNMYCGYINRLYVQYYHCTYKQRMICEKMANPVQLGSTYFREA", "assay": "ELISA of fusion proteins, FMC63 coat, biotinylated CLEC12A detection", "format": "binding"}}, "data": [{"molecule": "#440: fusion protein comprising an anti-CLEC12A VHH, an anti-CD33 scFv, and a CD19 ECD; SEQ ID NO:321 (protein) MEFGLSWVFLVALFRGVQCQVQLVQSGAEVKKPGESVKVSCKASGYTFTNYGMNWVKQAPGQGLEWMGWINTYTGEPTYADKFQGRVTMTTDTSTSTAYMEIRNLGGDDTAVYYCARWSWSDGYYVYFDYWGQGTSVTVSSGGGGSGGGGSGGGGSDIVMTQSPDSLTVSLGERTTINCKSSQSVLDSSTNKNSLAWYQQKPGQPPKLLLSWASTRESGIPDRFSGSGSGTDFTLTIDSPQPEDSATYYCQQSAHFPITFGQGTRLEIKGGGGSGGGGSGGGGSGGGGSQVQLQESGGGLVQAGGSLRLSCVASGSIRSINVMGWYRQAPGKQRELVAACASDGNTYYADSVKGRFTISRDNAEKTVYLQMNNLKPDDTAVYYCDANSRGNYYSGQGTQVTVSSTSGPGGQGAGGGGSGGGGSGGGGSGGGGSPEEPLVVKVEEGDTAALWCLKGTSDGPTQQLTWSRESPLKPFLKYSLGVPGLGVHVRPDAISVVIRNVSQQMGGFYLCQPGPPSEKAWQPGWTVNVEGSGELFRWNVSDLGGLGCGLKNRSSEGPSSPSGKLMSPKLYVWAKDRPEIWEGEPPCLPPRDSLNQSLSRDLTVAPGSTLWLSCGVPPDSVSRGPLSWTHVHPKGPKSLLSLELKDDRPARDMWVMGTSLMLPRATAQDAGKWYCHRGNLTMSFHLEITARPSRHHHHHH", "values": [{"measurement": "binding to U937 cells", "setting": "[1]", "value": "capable of binding to U937 cells"}]}, {"molecule": "#330: fusion protein comprised of a CD19 variant and an anti-CLL-1 VHH (2H3); SEQ ID NO:305 (protein) MEFGLSWVFLVALFRGVQCQVQLQESGGGLVQAGGSLRLSCVASGSIRSINVMGWYRQAPGKQRELVAACASDGNTYYADSVKGRFTISRDNAEKTVYLQMNNLKPDDTAVYYCDANSRGNYYSGQGTQVTVSSTSGPGGQGAGGGGSGGGGSGGGGSGGGGSPEEPLVVKVEEGDTAALWCLKGTSDGPTQQLTWSRESPLKPFLKYSLGVPGLGVHVRPDAISVVIRNVSQQMGGFYLCQPGPPSEKAWQPGWTVNVEGSGELFRWNVSDLGGLGCGLKNRSSEGPSSPSGKLMSPKLYVWAKDRPEIWEGEPPCLPPRDSLNQSLSRDLTVAPGSTLWLSCGVPPDSVSRGPLSWTHVHPKGPKSLLSLELKDDRPARDMWVMGTSLMLPRATAQDAGKWYCHRGNLTMSFHLEITARPSRHHHHHH", "values": [{"measurement": "binding to the Q form of CLEC12A", "setting": "[2]", "value": "binds very well"}, {"measurement": "binding to the K form of CLEC12A", "setting": "[3]", "value": "very weakly"}, {"measurement": "binding to the K form weaker than to the Q form", "setting": "[3]", "value": "greater than 10,000 fold"}, {"measurement": "CLEC12A binding EC50", "setting": "[4]", "value": 1.4, "unit": "ng/mL"}, {"measurement": "EC50", "setting": "[4]; read-out: CLEC12A binding EC50", "value": 0.0299, "unit": "nM"}]}]}
